Experimental findings from PMC3630055, “Bovine HEXIM1 inhibits bovine immunodeficiency virus replication through regulating BTat-mediated transactivation” (Veterinary Research, 2013) are described below.

This experiment concerns the target T1, His-BHEXIM1 (bovine, UniProt Q0X0C4 1-320).
T1 construct: bovine HEXIM1 (320 amino acids); pETH vector; the only BHEXIM1 cDNA described was amplified from the start to the stop codon (320 aa), so the construct is probably whole; also called purified BHEXIM1 protein; source: E. coli BL21 (DE3), purified (His Sepharose 6)
T1 sequence (looked up): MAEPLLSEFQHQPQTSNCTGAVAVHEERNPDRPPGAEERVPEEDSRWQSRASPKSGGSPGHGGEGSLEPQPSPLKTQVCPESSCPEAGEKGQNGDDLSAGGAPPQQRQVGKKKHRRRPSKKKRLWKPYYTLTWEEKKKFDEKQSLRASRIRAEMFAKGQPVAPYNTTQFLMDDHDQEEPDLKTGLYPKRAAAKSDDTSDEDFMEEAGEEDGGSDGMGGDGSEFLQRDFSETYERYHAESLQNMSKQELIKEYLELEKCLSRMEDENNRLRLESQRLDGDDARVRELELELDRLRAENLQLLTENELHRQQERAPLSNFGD
Description: pull-down; purified GST or GST-B-cyclin T1 immobilised on glutathione Sepharose 4B beads, incubated with purified His-fusion proteins; anti-His immunoblot; in the competition 20 μg GST-B-cyclin T1, 5 μg His-BTat and 1, 5, 10, 20 μg His-BHEXIM1. The following applies: both partners purified. Background: A western blot detects proteins with antibodies after separation by electrophoresis.

B1: GST-B-cyclin T1 (aa 1-272) (domain or fragment, bovine, UniProt Q6T8E9 1-272, looked up)
chain: MEGERKNNNKRWYFTREQLENSPSRRFGLDPDKELSNRQQAANLLQDMGQRLNVSQLTINTAIVYMHRFYMIQSFTQFHRNSVAPAALFLAAKVEEQPKKLEHVIKVAHTCLHPQESLPDTRSEAYLQQVQDLVILESIILQTLGFELTIDHPHTHVVKCTQLVRASKDLAQTSYFMATNSLHLTTFSLQYTPPVVACVCIHLACKWSNWEIPVSTDGKHWWEYVDATVTLELLDELTHEFLQILEKTPNRLKRIWNWRAWQADRKTKADDR
notes: bovine cyclin T1, residues 1-272; pGEX6p-1 vector; source: E. coli BL21 (DE3), purified (glutathione Sepharose 4B)
With B1, the binding result is listed as “binds”.
